# Measurements as given in the supplement of paper PMC10724198.
# ± gives the standard deviation of the averaged measurements.
# Tested on: Saccharomyces cerevisiae
# Test: protein stability index of tFT-peptide fusion (C-terminal peptide) (PSI (0-1 scale)); higher = more stable (slower turnover)
# Details: genetic background: wild type; temperature: 30 C
# 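Note: PSI is a weighted mean of sequencing reads over stability bins, variants kept only with over 10 reads, mCherry proximal and sfGFP distal, peptide attached via GGGS linker.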
row,Sequence,protein stability index
1,PPSAALPTSPTG,0.6911 ± 0.0015
2,PPSFCFFLLPFL,0.6558 ± 0.0054
3,PPSHSPRPLSFL,0.653 ± 0.08
4,PPSHYPFTPADP,0.728 ± 0.046
5,PPSIFELFPSPP,0.7122 ± 0.0051
6,PPSLHSRAFTLS,0.557 ± 0.2
7,PPSLPAPPPPPA,0.6655 ± 0.0023
8,PPSLSGECSPSF,0.6781 ± 0.0039
9,PPSLTPPFSPLL,0.703 ± 0.027
10,PPSLTSPRHPPT,0.669 ± 0.022
11,PPSNASFSSPPH,0.824 ± 0.035
12,PPSPAGPLPSPA,0.686 ± 0.021
13,PPSPHLPPPPAL,0.715 ± 0.016
14,PPSPPAPPAPPH,0.692 ± 0.038
15,PPSPPLPPLPPP,0.653 ± 0.0084
16,PPSPPLRPPSLC,0.704 ± 0.024
17,PPSPPPPPPLHS,0.676 ± 0.042
18,PPSPPPTPFPPS,0.651 ± 0.1
19,PPSPPPTTPSPP,0.656 ± 0.035
20,PPSPPSSHPLLP,0.679 ± 0.0078
21,PPSPSPPAPQAS,0.632 ± 0.05
22,PPSRPPPPPPSP,0.702 ± 0.061
23,PPSSLPRLQCSP,0.674 ± 0.054
24,PPSSPHAPTALP,0.685 ± 0.032
25,PPSSPTRPSSPL,0.736 ± 0.051
26,PPTANPMLPPPF,0.651 ± 0.055

row,Sequence,protein stability index
1,PPTASPPPLSPL,0.691 ± 0.083
2,PPTFLLRSAPSL,0.669 ± 0.043
3,PPTFRLHCPPAT,0.72 ± 0.02
4,PPTLRRGSTFYH,0.6788 ± 0.0016
5,PPTNTPTPPSYV,0.691 ± 0.025
6,PPTPAAPGLPPA,0.677 ± 0.035
7,PPTPPAFPPLLA,0.662 ± 0.03
8,PPTPQRRRSPPP,0.7326 ± 0.0066
9,PPTPSLPRPPMQ,0.676 ± 0.014
10,PPTPSSPRPMAP,0.818 ± 0.14
11,PPTPVSRSPPPA,0.665 ± 0.021
12,PPTRPPPALIPP,0.711 ± 0.022
13,PPTRSLYLLPLI,0.6983 ± 0.0035
14,PPVLPVGLPPTP,0.684 ± 0.035
15,PPVLTLFMPSYS,0.7051 ± 0.0043
16,PPVPPLRPSCPS,0.684 ± 0.01
17,PPVSLGCPPGRP,0.776 ± 0.099
18,PPVSPFPVLQGR,0.652 ± 0.048
19,PPWPPQVALPPT,0.762 ± 0.068
20,PPYPLLLRLPPP,0.618 ± 0.066
21,PQCSLPLPFTLL,0.61363 ± 0.00047
22,PQHLPFPSPAPP,0.711 ± 0.011
23,PQILTSRVAIKL,0.646 ± 0.068
24,PQLFLENHEFCI,0.925 ± 0.051
25,PQLPSRVYPSLP,0.695 ± 0.027
26,PQRPRTLPPLTP,0.7236 ± 0.0015

row,Sequence,protein stability index
1,PQTPANDDGDPN,0.642 ± 0.041
2,PQVNSNQIRAPD,0.677 ± 0.021
3,PQYLSGFDIHNG,0.728 ± 0.052
4,PRAPHHRIPEDL,0.733 ± 0.097
5,PRDRLIRNHVTR,0.716 ± 0.086
6,PRERADPSLPVK,0.663 ± 0.035
7,PRFKPSRSTPAD,0.675 ± 0.031
8,PRGLFLTRLRPC,0.64 ± 0.058
9,PRIPPLRPPPPA,0.6649 ± 0.0047
10,PRKVNAHKDTCH,0.693 ± 0.022
11,PRLARSASLDSP,0.731 ± 0.08
12,PRLLPPDPRHAP,0.7002 ± 0.0032
13,PRLPPTDHAGAL,0.675 ± 0.04
14,PRLRPFATPNCF,0.636 ± 0.046
15,PRPDPAPPAALP,0.6017 ± 0.0057
16,PRPGGQGHPNAG,0.742 ± 0.027
17,PRPKPSAIPILT,0.597 ± 0.015
18,PRPLLPPPPLLA,0.629 ± 0.083
19,PRPLPSPPHPRP,0.71 ± 0.026
20,PRPLPTGRFPPP,0.669 ± 0.028
21,PRPPLPSTPEAA,0.612 ± 0.024
22,PRPPLRATASVV,0.699 ± 0.033
23,PRPPPSRSFPPP,0.784 ± 0.13
24,PRPPTSPPSLHP,0.7 ± 0.025
25,PRQACPLPLPHV,0.655 ± 0.029
26,PRQGTRKYDKMN,0.724 ± 0.059

row,Sequence,protein stability index
1,PRRAARLLPRPL,0.693 ± 0.015
2,PRRARPLALVFH,0.6 ± 0.033
3,PRRSSSPPLLSP,0.784 ± 0.0088
4,PRSAPPVPPIYP,0.6502 ± 0.0053
5,PRSAPSPRRSPA,0.757 ± 0.034
6,PRSFPPRPPPPV,0.726 ± 0.051
7,PRSLPAGHPSRG,0.692 ± 0.028
8,PRSMLIFPSFPF,0.825 ± 0.042
9,PRSPPPPPPLPP,0.626 ± 0.019
10,PRSPPTPPPAPP,0.66 ± 0.013
11,PRSYPPSPPPPS,0.704 ± 0.042
12,PRTHPPPPAPCR,0.6634 ± 0.0054
13,PRTPRPPSPPAS,0.739 ± 0.015
14,PRTRSYTRCGVT,0.614 ± 0.024
15,PRYCQIKIISHK,0.554 ± 0.14
16,PRYPLLPAHTLI,0.705 ± 0.029
17,PSAFPAPPLRCS,0.686 ± 0.027
18,PSAPPPPPPSPP,0.5979 ± 0.005
19,PSCLGSIRSTPL,0.657 ± 0.02
20,PSDPTPSVPPIV,0.6647 ± 0.001
21,PSFPPLLSSSSI,0.763 ± 0.11
22,PSFVPHLPRPPP,0.722 ± 0.071
23,PSHFSPPSAPPP,0.738 ± 0.055
24,PSIHCLSATQTW,0.672 ± 0.068
25,PSIPPPSPSPPA,0.717 ± 0.027
26,PSLHSPPPPPPR,0.703 ± 0.053

row,Sequence,protein stability index
1,PSLLSFPFVSLP,0.696 ± 0.05
2,PSLPPLPRSPPP,0.714 ± 0.04
3,PSLPPPPHSAFC,0.698 ± 0.073
4,PSLPPPPPPPSP,0.614 ± 0.082
5,PSLPPPPPTPPT,0.688 ± 0.047
6,PSLPVPPTLCPI,0.675 ± 0.062
7,PSLSPPVHALLF,0.722 ± 0.013
8,PSLSVPERSPSL,0.7 ± 0.041
9,PSPFPPPSHPSP,0.695 ± 0.0041
10,PSPHAITSHFRP,0.723 ± 0.04
11,PSPHRELNESHE,0.674 ± 0.045
12,PSPHSPPSFLPL,0.729 ± 0.024
13,PSPLRLPPPSVP,0.712 ± 0.013
14,PSPMVPHVPMST,0.74579 ± 0.00057
15,PSPPLLTPLPPC,0.675 ± 0.022
16,PSPPPGPPPLPP,0.613 ± 0.011
17,PSPPPHPGGTRR,0.652 ± 0.057
18,PSPPPHPIHPMA,0.754 ± 0.18
19,PSPPPHSAPPLP,0.732 ± 0.025
20,PSPPPLLPRPHL,0.714 ± 0.1
21,PSPPPPAPPPPP,0.666 ± 0.013
22,PSPPPPPLPPAG,0.663 ± 0.097
23,PSPPPPSALLSP,0.727 ± 0.066
24,PSPPPPSLPPPP,0.67 ± 0.15
25,PSPPPRPPLSPP,0.715 ± 0.052
26,PSPPPVRPRHHH,0.597 ± 0.069

row,Sequence,protein stability index
1,PSPPSLPSCYAT,0.717 ± 0.029
2,PSPPTPSPPPPP,0.712 ± 0.062
3,PSPRPAPPPPPP,0.707 ± 0.054
4,PSPSAFLPCRLD,0.791 ± 0.094
5,PSPSPPRSPALS,0.713 ± 0.056
6,PSPVLLLPPPSL,0.745 ± 0.059
7,PSPWPPPPSDPP,0.552 ± 0.12
8,PSQRRTPPGLFK,0.656 ± 0.059
9,PSRRILFSAALL,0.764 ± 0.28
10,PSRYHPLPPPTP,0.711 ± 0.084
11,PSSDVLLFALSF,0.6486 ± 0.0049
12,PSSPLFLPPPPP,0.696 ± 0.023
13,PSSPPPPPLPPC,0.649 ± 0.058
14,PSSPSTRPRFPL,0.68 ± 0.083
15,PSSRPPMSPIDT,0.694 ± 0.018
16,PSSSSPPPTFSL,0.625 ± 0.066
17,PSSSSPPSLTPA,0.672 ± 0.097
18,PSTLPSHRVPLK,0.68 ± 0.041
19,PSTPRPPRPPPL,0.695 ± 0.027
20,PSTRVPATTHTL,0.6983 ± 0.00091
21,PSVPPSPPAPPT,0.687 ± 0.032
22,PSVPSPPPPSPP,0.683 ± 0.024
23,PSWPRRSSPLAI,0.73 ± 0.013
24,PSWVFRCAPSPF,0.505 ± 0.084
25,PSYPTAPHHSAA,0.704 ± 0.043
26,PTARGACRAPRS,0.667 ± 0.037

row,Sequence,protein stability index
1,PTGSGLTLNRVL,0.7187 ± 0.0062
2,PTHPSRLRLFSA,0.612 ± 0.024
3,PTLAFIPIPTLF,0.6051 ± 0.004
4,PTLCLPESSGRL,0.705 ± 0.028
5,PTLWRSSVRHVW,0.714 ± 0.066
6,PTPCCFPHPPPT,0.709 ± 0.02
7,PTPFVPSPPCRA,0.664 ± 0.041
8,PTPGSSPLPATL,0.687 ± 0.0075
9,PTPPHPSHPTAP,0.665 ± 0.023
10,PTPPPLTPPPCF,0.678 ± 0.014
11,PTPSPPLPPITP,0.773 ± 0.024
12,PTPTGPGSTSPP,0.662 ± 0.046
13,PTQSPSTIPPSP,0.763 ± 0.11
14,PTRPPPTSHTPY,0.685 ± 0.02
15,PTRPSHTALPSA,0.664 ± 0.023
16,PTRRQEVPPEPT,0.636 ± 0.058
17,PTSPTTSPDHKH,0.684 ± 0.15
18,PTTAPPPRSAGA,0.764 ± 0.051
19,PTTFLSPPSPPS,0.71 ± 0.011
20,PTTPPPSVPPLY,0.715 ± 0.042
21,PTVPLSSVVRDA,0.746 ± 0.051
22,PVAGMSNTPLYG,0.685 ± 0.11
23,PVAPPQLSPPSS,0.6704 ± 0.0048
24,PVCASVSLTSSP,0.697 ± 0.024
25,PVGEGAGELGGG,0.642 ± 0.034
26,PVGGAGCVRGGV,0.749 ± 0.19

row,Sequence,protein stability index
1,PVILPPLAPFLS,0.629 ± 0.019
2,PVITPPSSTPPI,0.6815 ± 0.0021
3,PVLANPQGHPPN,0.719 ± 0.027
4,PVLCLRMQVLSK,0.532 ± 0.032
5,PVLPPRSFPPSS,0.697 ± 0.014
6,PVLSPPRPFNSL,0.677 ± 0.018
7,PVPLPSPFPLPL,0.664 ± 0.0093
8,PVPPPPPSLHPP,0.636 ± 0.023
9,PVPPRPHGFPHL,0.678 ± 0.023
10,PVRFVDGFLSPI,0.713 ± 0.03
11,PVSPAHLRRSLL,0.775 ± 0.031
12,PVSPPRLPRPPP,0.615 ± 0.017
13,PVSSFHICGPIC,0.71 ± 0.0098
14,PVSVALASGSLF,0.744 ± 0.1
15,PVTALIASLILR,0.611 ± 0.031
16,PVTPHESVVPSL,0.686 ± 0.02
17,PVVSRPSNFRWV,0.663 ± 0.02
18,PVWDGTAKLSVI,0.65 ± 0.026
19,PVYSIARLVPGV,0.693 ± 0.029
20,PWSFSPLPFVLL,0.673 ± 0.037
